T1: human CLDN6 (human, UniProt P56747 1-220)
T1 sequence: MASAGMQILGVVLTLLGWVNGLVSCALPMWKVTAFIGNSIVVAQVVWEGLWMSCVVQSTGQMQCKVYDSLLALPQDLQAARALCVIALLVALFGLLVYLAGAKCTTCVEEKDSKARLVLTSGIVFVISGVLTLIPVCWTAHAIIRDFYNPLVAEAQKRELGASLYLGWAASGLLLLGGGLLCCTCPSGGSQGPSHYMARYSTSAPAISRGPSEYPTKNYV

T2: human CLDN9 (human, UniProt O95484 1-217)
T2 sequence: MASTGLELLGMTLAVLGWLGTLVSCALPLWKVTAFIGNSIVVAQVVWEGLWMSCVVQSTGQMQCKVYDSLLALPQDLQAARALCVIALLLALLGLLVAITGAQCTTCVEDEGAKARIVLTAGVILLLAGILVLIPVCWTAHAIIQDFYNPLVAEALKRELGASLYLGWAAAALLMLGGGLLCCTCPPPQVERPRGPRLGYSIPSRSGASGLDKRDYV

T3: human CLDN4 (human, UniProt O14493 1-209)
T3 sequence (looked up): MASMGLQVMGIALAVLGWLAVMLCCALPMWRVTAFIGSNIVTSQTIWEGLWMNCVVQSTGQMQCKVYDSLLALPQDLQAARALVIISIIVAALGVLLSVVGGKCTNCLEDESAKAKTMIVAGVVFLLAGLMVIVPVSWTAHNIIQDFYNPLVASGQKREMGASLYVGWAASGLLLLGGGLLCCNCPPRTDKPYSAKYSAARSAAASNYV


How the values were obtained:
Assay in all cases: cell-based or functional assay
[1] = target: T1, human CLDN6
[2] = target: T2, human CLDN9
[3] = target: T3, human CLDN4

Row | Binder | apparent IC50, killing of HEK293T cells overexpressing hCLDN6 with anti-mouse Fab-saporin, CellTiter-Glo [1] [nM] | apparent IC50, killing of HEK293T cells overexpressing hCLDN9 with anti-mouse Fab-saporin, CellTiter-Glo [2] [nM] | apparent IC50, killing of HEK293T cells overexpressing hCLDN4 with anti-mouse Fab-saporin, CellTiter-Glo [3] [nM]
1 | SC27.108 (antibody, V domains shown) VH: QVQMQQSGAELVRPGTSVKVSCKASGYAFTNYLIEWVKQRPGQGLEWIGLINPGSGGTNYNEKFKGKATLTADKSSTTAYMQLSSLTSDDSAVYFCARRSPLGSWIYYAYDGVAYWGQGTLVTVSA VL: EIVLTQSPALMAASPGEKVTITCSVSSSISSSNLHWYQQKSGTSPKLWIYGTSNLASGVPVRFSGSGSGTSYSLTISNMEAEDAATYYCQQWSSYPHTFGGGTKLEIK | 102 | > 2000 | > 2000
2 | SC27.204 (antibody, V domains shown) VH: EVKVLESGGGLVQPGGSLKLSCAASGFDFSRYWMSWVRQAPGKGLEWIGEINPDSSTINYTPSLKAKFIISRDNAKNTLYLQMSKVRSEDTALYYCTGPAYWGQGTLVTVSA VL: DIVMTQSQKFMSTSVGDRVSVACKAGQNVGTSVAWYQQKPGHSPKSLIYSASYRYSGVPNRFTGSGSGTDFTLTISNVQSEDLADYFCQQYITYPYTFGGGTKLEII | 25.2 | 16.9 | > 2000
3 | SC27.201 (antibody, V domains shown) VL: DIQMTQSSSSFSVSLGDRVTITCKASEDIYNRLAWYQQKPGNAPRLLISGATSLEAGVPSGFSGSGSGKDYTLSITSLQTEDVATYYCQQYWSTPPTFGGGTKLELK V domain: EVQLQQSGPELVKPGASVKISCKTSGYTFTENIRHWVKQSRGKSLEWIGTINPNNGETRYNQKFKGKATLTVDKSSSTAYMELRSLTSEDSAVYYCTRGITKSPYGMDYWGQGTSITVSS | 48.2 | 155 | 69.7
4 | SC27.104 (antibody, V domains shown) VH: EVQLQQSGPELVKPGASVKISCKTSGYTFTEYTVHWVKQSHGKSLEWIGGVYPKNGDTTYNQKFRGKATLTVDKSSNTAYMELRSLTSEDSAVYYCTGKDGYDGFAYWGQGTLVTVSA VL: DIQMTQSSSSFSVSLGDRVTITCKASEDIYNRLAWYQQKPGNAPRLLISGATSLETGVPSRFSGSGSGKDYTLSITSLQTEDVATYYCQQYWSNPPTFGGGTKLEIK | 284 | > 2000 | 969
5 | SC27.103 (antibody, V domains shown) VH: EVHLQQSGPELVKPGGSMKISCKASGYSFTGYTMNWVKQSHGKNLEWIGLFNPYNGGTSYNQKFKGKATLTVDKSSSTAYMELLSLTSEDSAVYYCARCYRYDGLDYWGQGTTLTVSS VL: QIVLTQSPAIMSASLGERVTMTCTASSSVSSSYLHWYQQKPGSSPTLWIYRTSDLASGVPARFSGSGSGTSYSLTISSMEAEDAATYYCHQYHRSPWTFGGGTRLEIK | 57.7 | 466 | > 2000
6 | SC27.105 (antibody, V domains shown) VH: EVQLQQSGPELVKPGASVKISCKASGYSFTGYYMNWVKQSPEKSLEWIGEINPSTGSTTYNQKFKAKATLTVDKSSSTAYMQLKSLTSEDSAVYYCARRDYYYGSGFYAMDYWGQGTSVTVSS VL: DVQMTQSPSSLSASLGERVSLTCQASQSVSNNLNWYQQTPGKAPRLLIYGASKLEDGVSSRFSGTGYGTDFTFTISSLEEEDVATYFCLQHRYLWTFGGGTKLEIK | 235 | > 2000 | > 2000

— patent US20190083645A1 (AbbVie / Abbott, published 2019)
